Reference: publication PMC7911018 (2021)

B1: VHH A10 (anti-HER2 nanobody) (VHH)
VHH: DVQLQASGGGFVQPGGSLRLSCAASGATSNISNMGWFRQAPGKEREFVSAISRAESRPLYYADSVKGRFTISRDNSKNTVYLQMNSLRAEDTATYYCAYMPLVRHKAYWGQGTQVTVSS
B2: A10C (A10 CDRs grafted into the C8WT scaffold) (VHH)
VHH: DVQLQASGGGLAQPGGSLRLSCAASCDRMYWVRQAPGKGLEWVSSCDRYYADSVKGRFTISRDNAKNTLYLQMNSLKLEDTALYFCACDRGQGTQVTVSS

Target: HER2 ectodomain-Fc (96 kDa) (human, UniProt P04626 23-652)
Test: SPR

Row | Binder | Kd
1 | B1 | 8.1 nM
2 | B2 | 40.5 nM
